# Assays:
# [1] = test system: CA20948 rat tissues and organs; assay: Fluorescence imaging of ex-vivo tissues and organs from CA20948 tumor bearing rat; format: in vivo; conditions: 27 hours post administration (FIG. 5)
# Protocol: Individual organs were removed from the CA20948 rat which was injected with cytate 1 and were imaged.
# [2] = test system: DSL 6/A (pancreatic) tumor; assay: In vivo fluorescence imaging of DSL 6/A tumor bearing rats; parameters: species or system male Lewis rats; conditions: images at 2 and 30 minutes post administration, 0.5 ml of 0.42 mg/ml i.v.
# Text: (§1) A non-invasive in vivo fluorescence imaging apparatus was employed to assess the efficacy of indocyanine green (ICG) in three different rat tumor cell lines of the inventive contrast agents developed for tumor detection in animal models. A LaserMax Inc. laser diode of nominal wavelength 780 nm and nominal power of 40 mW was used. The detector was a Princeton Instruments model RTE/CCD-1317-K/2 CCD camera with a Rodenstock 10 mm F2 lens (stock #542.032.002.20) attached. An 830 nm […] (CVI Laser Corp., part #F10-830-4-2) was mounted in front of the CCD input lens, such that only emitted fluorescent light from the contrast agent was imaged.
# (§2) Three tumor cell lines, DSL 6/A (pancreatic), Dunning R3327-H (prostate), and CA20948 (pancreatic), which are rich in somatostatin (SST-2) receptors were induced into male Lewis rats by solid implant technique in the left flank area (Achilefu et al., Invest. Radiology, 2000, pp. 479-485). Palpable masses were detected nine days post implant.
# (§3) The animals were anesthetized with xylazine:ketamine:acepromazine (1.5:1.5:0.5^v/v) at 0.8 ml/kg via intramuscular injection. The left flank was shaved to expose the tumor and surrounding surface area. A 21-gauge butterfly needle equipped with a stopcock connected to two syringes containing heparinized saline was placed into the tail vein of the rat. […]
# [3] = test system: Dunning R3327-H (prostate) tumor; assay: In vivo fluorescence imaging of Dunning R3327-H tumor bearing rats; parameters: species or system male Lewis rats; conditions: images at 2 and 30 minutes post administration, 0.5 ml of 0.42 mg/ml i.v.
# Text: as §1, §2, §3
# [4] = test system: CA20948 (pancreatic) tumor, rich in somatostatin (SST-2) receptors; assay: In vivo fluorescence imaging of CA20948 tumor bearing rats; parameters: species or system male Lewis rats
# Text: as §1, §2, §3
Compound,uptake of the conjugate in adrenal glands ([1]; ex vivo organ),uptake of the conjugate in heart ([1]; ex vivo organ),uptake of the conjugate in liver ([1]; ex vivo organ),uptake of the conjugate in pancreas ([1]; ex vivo organ),uptake of the conjugate in spleen ([1]; ex vivo organ),uptake of the conjugate in muscle ([1]; ex vivo tissue),uptake of the conjugate in tumor tissue ([1]; ex vivo tissue),perfusion of the agent into the tumor [2],perfusion of the agent into the tumor [3],non-specific localization into the tumor line ([4]; compared to the other two lines),"perfusion of the agent into the tumor ([4]; images at 2 and 30 minutes post administration, 0.5 ml of 0.42 mg/ml i.v.)"
"C[C@@H](O)[C@H](NC(=O)[C@@H]1CSSC[C@H](NC(=O)[C@@H](Cc2ccccc2)NC(=O)CC[N+]2=C(/C=C/C=C/C=C/C=C3/N(CCC(=O)O)c4ccc5ccccc5c4C3(C)C)C(C)(C)c3c2ccc2ccccc32)C(=O)N[C@@H](Cc2ccc(O)cc2)C(=O)N[C@H](Cc2c[nH]c3ccccc23)C(=O)N[C@@H](CCCCN)C(=O)N[C@@H]([C@@H](C)O)C(=O)N1)C(=O)O [Cytate 1, monooctreotate-bisethylcarboxymethylindocyanine dye]",High uptake,Significant lower uptake,Significant lower uptake,High uptake,Significant lower uptake,Significant lower uptake,High uptake,–,–,–,–
"CC1(C)C(/C=C/C=C/C=C/C=C2\N(CCCCS(=O)(=O)O)c3ccc4ccccc4c3C2(C)C)=[N+](CCCCS(=O)(=O)[O-])c2ccc3ccccc3c21 [ICG, indocyanine green]",–,–,–,–,–,–,–,slow perfusion of the agent into the tumor over time,slow perfusion of the agent into the tumor over time,no non-specific localization,only a slight and transient perfusion that was cleared after only 30 minutes post injection

# From patent US6761878B2, “Pathological tissue detection and treatment employing targeted benzoindole optical agents” (Mallinckrodt, Inc., priority 2001, dated 2004)
